Test [1] addresses T1, RESTV GP (RESTV, UniProt Q66799 34-651).
T1 sequence: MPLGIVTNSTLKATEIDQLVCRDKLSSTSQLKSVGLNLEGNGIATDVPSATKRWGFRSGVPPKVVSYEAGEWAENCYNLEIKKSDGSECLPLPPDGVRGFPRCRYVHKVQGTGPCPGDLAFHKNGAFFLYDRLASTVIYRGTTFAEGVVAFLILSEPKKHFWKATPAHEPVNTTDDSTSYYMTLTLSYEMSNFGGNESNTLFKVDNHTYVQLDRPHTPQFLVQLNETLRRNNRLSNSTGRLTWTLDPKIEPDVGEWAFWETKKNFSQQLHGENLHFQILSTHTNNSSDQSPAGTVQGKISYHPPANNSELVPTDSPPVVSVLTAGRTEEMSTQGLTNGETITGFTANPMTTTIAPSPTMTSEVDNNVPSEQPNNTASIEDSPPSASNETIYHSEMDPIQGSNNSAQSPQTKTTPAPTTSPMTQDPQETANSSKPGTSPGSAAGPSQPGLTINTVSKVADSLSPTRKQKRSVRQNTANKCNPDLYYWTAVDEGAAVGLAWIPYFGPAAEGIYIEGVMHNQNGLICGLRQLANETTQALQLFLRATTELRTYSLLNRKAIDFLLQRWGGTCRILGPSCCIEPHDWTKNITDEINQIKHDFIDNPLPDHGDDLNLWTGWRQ
Briefly: ELISA, coated GP 1 μg/mL, 1:3 dilution series of 8F9. Background: ELISA stands for enzyme-linked immunosorbent assay.

In test [2] the target is T2, SUDV GP (SUDV, UniProt Q7T9D9 33-650).
T2 sequence: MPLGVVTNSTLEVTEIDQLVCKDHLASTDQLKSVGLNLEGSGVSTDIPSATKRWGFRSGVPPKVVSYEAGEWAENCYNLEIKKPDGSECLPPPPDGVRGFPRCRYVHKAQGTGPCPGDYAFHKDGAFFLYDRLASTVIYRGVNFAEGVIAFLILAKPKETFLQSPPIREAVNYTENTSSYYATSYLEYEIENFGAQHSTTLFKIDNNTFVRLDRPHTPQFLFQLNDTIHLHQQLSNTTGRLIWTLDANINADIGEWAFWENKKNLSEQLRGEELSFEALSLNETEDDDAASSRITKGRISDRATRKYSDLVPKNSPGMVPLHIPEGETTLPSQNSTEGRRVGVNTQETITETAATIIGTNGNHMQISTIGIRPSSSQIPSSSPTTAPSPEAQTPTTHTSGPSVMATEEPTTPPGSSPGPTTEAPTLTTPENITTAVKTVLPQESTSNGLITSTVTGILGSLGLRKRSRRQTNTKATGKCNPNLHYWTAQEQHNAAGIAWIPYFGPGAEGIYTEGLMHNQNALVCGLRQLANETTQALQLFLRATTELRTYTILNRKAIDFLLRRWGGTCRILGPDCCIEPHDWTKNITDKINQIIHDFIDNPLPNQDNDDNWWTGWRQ
Described as above.

The target in test [3] is T3, EBOV GP (EBOV, UniProt Q05320 33-650).
T3 sequence: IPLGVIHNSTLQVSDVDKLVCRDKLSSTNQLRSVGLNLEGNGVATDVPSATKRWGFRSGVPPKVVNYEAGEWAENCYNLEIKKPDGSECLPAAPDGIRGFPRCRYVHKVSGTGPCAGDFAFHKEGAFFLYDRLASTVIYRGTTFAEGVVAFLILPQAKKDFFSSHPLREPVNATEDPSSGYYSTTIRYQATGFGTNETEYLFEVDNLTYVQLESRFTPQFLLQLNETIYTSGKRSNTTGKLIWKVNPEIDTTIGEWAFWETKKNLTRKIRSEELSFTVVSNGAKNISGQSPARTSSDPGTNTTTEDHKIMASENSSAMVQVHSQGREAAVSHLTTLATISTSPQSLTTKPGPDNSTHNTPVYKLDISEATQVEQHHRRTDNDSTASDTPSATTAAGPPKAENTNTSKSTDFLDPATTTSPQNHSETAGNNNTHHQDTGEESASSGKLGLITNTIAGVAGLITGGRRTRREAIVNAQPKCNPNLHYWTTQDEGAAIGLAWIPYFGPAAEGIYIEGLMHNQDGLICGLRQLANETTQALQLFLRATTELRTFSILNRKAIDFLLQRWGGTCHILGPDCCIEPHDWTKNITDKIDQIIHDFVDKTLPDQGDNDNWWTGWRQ
In words: ELISA, coated GP 1 μg/mL, 1:3 dilution series of 8F9 from 10 μg/mL.

For test [4], the target named is GP1 (EBOV, UniProt Q05320 33-501). In words: ELISA on coated truncated GP, method as example 2.
Test [5] deals with sGP (EBOV, UniProt Q05320 33-295). Briefly: ELISA on coated truncated GP, method as example 2.

B1: 单克隆抗体8F9 (antibody, V domains shown)
VH: EVQLLESGGGLVQPGGSLRLSCAASEFTFSNYAMNWVRQAPGKGLEWVSGISTRGSSTYYADSVKGRFTISRDNSKNTLYLQMNSLRVEDTAVYYCAKDRLSVFGVVLISSDYYGMDVWGQGTTVTVSS
VL: AIRMTQSPFSLSASVGDRVTITCRASRTISSYLNWYQKKPGKAPKLLIYAASSLQSGVPSRFSGSGSGTDFTLTISSLQPEDFATYYCQQSYSTPMTFGQGTRLEIKT
For B1, the binding result in test [1] and in test [2] was “no binding (tested: 10μg/mL (highest concentration tested))” in each case. Further, the EC50 in test [3] is 15 ng/mL; in test [4] it was 9.5 ng/mL; in test [5], 8.8 ng/mL.

In general, EC50 refers to the concentration giving half of the maximal effect. A higher EC50 goes with a need for much substance.

Values taken from patent CN111138531A (INST MILITARY MEDICINE ACADEMY MILITARY SCIENCES PLA, dated 2020).
